Experimental data: patent US20120277142A1 (HANALL BIOPHARMA, published 2012)

What follows are binders tested against T1, TNF-α (UniProt P01375 77-233, limits assumed) (assay: competition ELISA: sample vs plate-bound TNFRI190 for TNF-α, from IC50, relative to wild-type TNFRI171).
T1 construct: also called tumor necrosis factor; ligand
Protocol: Each well was washed three times with 300 μL of washing buffer (0.05% Tween-20, PBS, pH 7.4) and incubated at room temperature for 2 hours with 300 μL of a blocking buffer (5% skim milk, PBS, pH 7.4). Then, each well was washed as mentioned above. A sample of interest was diluted to concentrations of 500 nM, 125 nM, 31 nM, 7.8 nM, 1.9 nM, 0.48 nM, 0.12 nM, and 0.03 nM in series and loaded in an amount of 100 μL into each well in duplicate. To each well was added 100 μL of 50 ng/ml TNF-α, followed by incubation at room temperature for 2 hours. After the wells were washed with a washing buffer, 100 μg/mL anti-TNF-α antibody solution was diluted 1/1000, added in an amount of 100 μL per each well, and incubated at room temperature for 2 hours. After the plates were washed with a washing buffer, a substrate was added in an amount of 100 μL to each well and reacted at room temperature for 15 min. In each well, 100 μL of the substrate 3,3′,5,5′-tetramethylbenzidine (RnD, Cat. No: DY999) was reacted at room temperature for 15 min, followed by adding 50 μL of 1.0 M sulfuric acid (Samchun Chemical, Cat. No: 52129) to each well to stop the reaction.
The affinity of the Met-TNFRI for TNF-α was assayed using the same procedure as in [Experimental Example 1]

Relative Affinity for Ligand (%)	Binder
563	TNFRI171-S31 (receptor, Met-TNFRI171 superlead mutant made in E. coli) MDSVCPQGKYIHPQNNSICCTKCHKGTYVYNDCPGPGQDTDCRECESGSFTAIENFLPACLSCSKCRKEMGQVEISSCTVDRDTVCGCRKNQYRHYWSENLFQCFNCSLCLNGTVHLSCQEKQNTVCTCHAGFFLRENECVSCSNCKKSLECTKLCLPQIENVKGTEDSGTT
1020	TNFRI171-S53 (receptor, Met-TNFRI171 superlead mutant made in E. coli) MDSVCPQGKYIHPQNNSICCTKCHKGTYVYNDCPGPGQDTDCRECESGSFTAIENFLPACLSCSKCRKEMGQVEISSCTVDRDTVCGCRKNQYRHYWSENLFQCFNCSLCLNGTVHLSCQEQQNTVCTCHAGFFLRENECVSCSNCKKSLECTKLCLPQIENVKGTEDSGTT
558	TNFRI171-S41 (receptor, Met-TNFRI171 superlead mutant made in E. coli) MDSVCPQGKYIHPQNNSICCTKCHKGTYVYNDCPGPGQDTDCRECESGSFTAHENFLPACLSCSKCRKEMGQVEISSCTVDRDTVCGCRKNQYRHYWSENLFQCFNCSLCLNGTVHLSCQEKQNTVCTCHAGFFLRENECVSCSNCKKSLECTKLCLPQIENVKGTEDSGTT
510	TNFRI171-S36 (receptor, Met-TNFRI171 superlead mutant made in E. coli) MDSVCPQGKYIHPQNNSICCTKCHKGTYVYNDCPGPGQDTDCRECESGSFTAMENFLPACLSCSKCRKEMGQVEISSCTVDRDTVCGCRKNQYRHYWSENLFQCFNCSLCLNGTVHLSCQEKQNTVCTCHAGFFLRENECVSCSNCKKSLECTKLCLPQIENVKGTEDSGTT
589	TNFRI171-S50 (receptor, Met-TNFRI171 superlead mutant made in E. coli) MDSVCPQGKYIHPQNNSICCTKCHKGTYLYNDCPGPGQDTDCRECESGSFTAIPNFLPGCLSCSKCRKEMGQVEISSCTVDRDTVCGCRKNQYRHYWSENLFQCFNCSLCLNGTVHLSCQENQNTVCTCHAGFFLRENECVSCSNCKKSLECTKLCLPQIENVKGTEDSGTT
900	TNFRI171-S54 (receptor, Met-TNFRI171 superlead mutant made in E. coli) MDSVCPQGKYIHPQNNSICCTKCHKGTYVYNDCPGPGQDTDCRECESGSFTAIENFLPACLSCSKCRKEMGQVEISSCTVDRDTVCGCRKNQYRHYWSENLFQCFNCSLCLNGTVHLSCQENQNTVCTCHAGFFLRENECVSCSNCKKSLECTKLCLPQIENVKGTEDSGTT
668	TNFRI171-S32 (receptor, Met-TNFRI171 superlead mutant made in E. coli) MDSVCPQGKYIHPQNNSICCTKCHKGTYLYNDCPGPGQDTDCRECESGSFTAIENFLPACLSCSKCRKEMGQVEISSCTVDRDTVCGCRKNQYRHYWSENLFQCFNCSLCLNGTVHLSCQEQQNTVCTCHAGFFLRENECVSCSNCKKSLECTKLCLPQIENVKGTEDSGTT
416	TNFRI171-S42 (receptor, Met-TNFRI171 superlead mutant made in E. coli) MDSVCPQGKYIHPQNNSICCTKCHKGTYLYNDCPGPGQDTDCRECESGSFTAHENFLPACLSCSKCRKEMGQVEISSCTVDRDTVCGCRKNQYRHYWSENLFQCFNCSLCLNGTVHLSCQEQQNTVCTCHAGFFLRENECVSCSNCKKSLECTKLCLPQIENVKGTEDSGTT
537	TNFRI171-S51 (receptor, Met-TNFRI171 superlead mutant made in E. coli) MDSVCPQGKYIHPQNNSICCTKCHKGTYLYNDCPGPGQDTDCRECESGSFTAIPNFLPGCLSCSKCRKEMGQVEISSCTVDRDTVCGCRKNQYRHYWSENLFQCFNCSLCLNGTVHLSCQEKQNTVCTCHAGFFLRENECVSCSNCKKSLECTKLCLPQIQNVKGTEDSGTT
547	TNFRI171-S49 (receptor, Met-TNFRI171 superlead mutant made in E. coli) MDSVCPQGKYIHPQNNSICCTKCHKGTYLYNDCPGPGQDTDCRECESGSFTAIPNFLPGCLSCSKCRKEMGQVEISSCTVDRDTVCGCRKNQYRHYWSENLFQCFNCSLCLNGTVHLSCQEQQNTVCTCHAGFFLRENECVSCSNCKKSLECTKLCLPQIENVKGTEDSGTT
626	TNFRI171-S52 (receptor, Met-TNFRI171 superlead mutant made in E. coli) MDSVCPQGKYIHPQNNSICCTKCHKGTYLYNDCPGPGQDTDCRECESGSFTAIPNFLPGCLSCSKCRKEMGQVEISSCTVDRDTVCGCRKNQYRHYWSENLFQCFNCSLCLNGTVHLSCQEKQNTVCTCHAGFFLRENECVSCSNCKKSLECTKLCLPQIENVKGTENSGTT
694	TNFRI171-S44 (receptor, Met-TNFRI171 superlead mutant made in E. coli) MDSVCPQGKYIHPQNNSICCTKCHKGTYLYNDCPGPGQDTDCRECESGSFTAHENFLPACLSCSKCRKEMGQVEISSCTVDRDTVCGCRKNQYRHYWSENLFQCFNCSLCLNGTVHLSCQEKQNTVCTCHAGFFLRENECVSCSNCKKSLECTKLCLPQIQNVKGTEDSGTT
758	TNFRI171-S47 (receptor, Met-TNFRI171 superlead mutant made in E. coli) MDSVCPQGKYIHPQNNSICCTKCHKGTYVYNDCPGPGQDTDCRECESGSFTAMENFLPGCLSCSKCRKEMGQVEISSCTVDRDTVCGCRKNQYRHYWSENLFQCFNCSLCLNGTVHLSCQEKQNTVCTCHAGFFLRENECVSCSNCKKSLECTKLCLPQIENVKGTEDSGTT
568	TNFRI171-S33 (receptor, Met-TNFRI171 superlead mutant made in E. coli) MDSVCPQGKYIHPQNNSICCTKCHKGTYLYNDCPGPGQDTDCRECESGSFTAIENFLPACLSCSKCRKEMGQVEISSCTVDRDTVCGCRKNQYRHYWSENLFQCFNCSLCLNGTVHLSCQENQNTVCTCHAGFFLRENECVSCSNCKKSLECTKLCLPQIENVKGTEDSGTT
521	TNFRI171-S35 (receptor, Met-TNFRI171 superlead mutant made in E. coli) MDSVCPQGKYIHPQNNSICCTKCHKGTYLYNDCPGPGQDTDCRECESGSFTAIENFLPACLSCSKCRKEMGQVEISSCTVDRDTVCGCRKNQYRHYWSENLFQCFNCSLCLNGTVHLSCQEKQNTVCTCHAGFFLRENECVSCSNCKKSLECTKLCLPQIENVKGTENSGTT
773	TNFRI171-S40 (receptor, Met-TNFRI171 superlead mutant made in E. coli) MDSVCPQGKYIHPQNNSICCTKCHKGTYLYNDCPGPGQDTDCRECESGSFTAMENFLPACLSCSKCRKEMGQVEISSCTVDRDTVCGCRKNQYRHYWSENLFQCFNCSLCLNGTVHLSCQEKQNTVCTCHAGFFLRENECVSCSNCKKSLECTKLCLPQIENVKGTENSGTT
705	TNFRI171-S39 (receptor, Met-TNFRI171 superlead mutant made in E. coli) MDSVCPQGKYIHPQNNSICCTKCHKGTYLYNDCPGPGQDTDCRECESGSFTAMENFLPACLSCSKCRKEMGQVEISSCTVDRDTVCGCRKNQYRHYWSENLFQCFNCSLCLNGTVHLSCQEKQNTVCTCHAGFFLRENECVSCSNCKKSLECTKLCLPQIQNVKGTEDSGTT
700	TNFRI171-S34 (receptor, Met-TNFRI171 superlead mutant made in E. coli) MDSVCPQGKYIHPQNNSICCTKCHKGTYLYNDCPGPGQDTDCRECESGSFTAIENFLPACLSCSKCRKEMGQVEISSCTVDRDTVCGCRKNQYRHYWSENLFQCFNCSLCLNGTVHLSCQEKQNTVCTCHAGFFLRENECVSCSNCKKSLECTKLCLPQIQNVKGTEDSGTT
805	TNFRI171-S46 (receptor, Met-TNFRI171 superlead mutant made in E. coli) MDSVCPQGKYIHPQNNSICCTKCHKGTYVYNDCPGPGQDTDCRECESGSFTAIENFLPGCLSCSKCRKEMGQVEISSCTVDRDTVCGCRKNQYRHYWSENLFQCFNCSLCLNGTVHLSCQEKQNTVCTCHAGFFLRENECVSCSNCKKSLECTKLCLPQIENVKGTEDSGTT
668	TNFRI171-S37 (receptor, Met-TNFRI171 superlead mutant made in E. coli) MDSVCPQGKYIHPQNNSICCTKCHKGTYLYNDCPGPGQDTDCRECESGSFTAMENFLPACLSCSKCRKEMGQVEISSCTVDRDTVCGCRKNQYRHYWSENLFQCFNCSLCLNGTVHLSCQEQQNTVCTCHAGFFLRENECVSCSNCKKSLECTKLCLPQIENVKGTEDSGTT
594	TNFRI171-S48 (receptor, Met-TNFRI171 superlead mutant made in E. coli) MDSVCPQGKYIHPQNNSICCTKCHKGTYVYNDCPGPGQDTDCRECESGSFTAIPNFLPGCLSCSKCRKEMGQVEISSCTVDRDTVCGCRKNQYRHYWSENLFQCFNCSLCLNGTVHLSCQEKQNTVCTCHAGFFLRENECVSCSNCKKSLECTKLCLPQIENVKGTEDSGTT
679	TNFRI171-S45 (receptor, Met-TNFRI171 superlead mutant made in E. coli) MDSVCPQGKYIHPQNNSICCTKCHKGTYLYNDCPGPGQDTDCRECESGSFTAHENFLPACLSCSKCRKEMGQVEISSCTVDRDTVCGCRKNQYRHYWSENLFQCFNCSLCLNGTVHLSCQEKQNTVCTCHAGFFLRENECVSCSNCKKSLECTKLCLPQIENVKGTENSGTT
579	TNFRI171-S43 (receptor, Met-TNFRI171 superlead mutant made in E. coli) MDSVCPQGKYIHPQNNSICCTKCHKGTYLYNDCPGPGQDTDCRECESGSFTAHENFLPACLSCSKCRKEMGQVEISSCTVDRDTVCGCRKNQYRHYWSENLFQCFNCSLCLNGTVHLSCQENQNTVCTCHAGFFLRENECVSCSNCKKSLECTKLCLPQIENVKGTEDSGTT
589	TNFRI171-S38 (receptor, Met-TNFRI171 superlead mutant made in E. coli) MDSVCPQGKYIHPQNNSICCTKCHKGTYLYNDCPGPGQDTDCRECESGSFTAMENFLPACLSCSKCRKEMGQVEISSCTVDRDTVCGCRKNQYRHYWSENLFQCFNCSLCLNGTVHLSCQENQNTVCTCHAGFFLRENECVSCSNCKKSLECTKLCLPQIENVKGTEDSGTT
